Test results published in patent US20200148777A1 (GAMAMABS PHARMA, published 2020).

T1: MISRII (AMHRII), immobilised on CM5 sensor chip (UniProt Q16671 18-144, limits assumed)
T1 construct: also called MSRII; immobilized receptor
T1 sequence (looked up): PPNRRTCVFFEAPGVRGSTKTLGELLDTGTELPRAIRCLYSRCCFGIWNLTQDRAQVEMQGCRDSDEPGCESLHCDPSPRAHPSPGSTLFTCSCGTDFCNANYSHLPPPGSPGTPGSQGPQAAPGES

T2: human Fcγ RII/CD32a (human, UniProt P12318 36-218)
T2 construct: Captured through anti-His antibody, so a His tag is implied but not described; also called hFcγRIIa
T2 sequence (looked up): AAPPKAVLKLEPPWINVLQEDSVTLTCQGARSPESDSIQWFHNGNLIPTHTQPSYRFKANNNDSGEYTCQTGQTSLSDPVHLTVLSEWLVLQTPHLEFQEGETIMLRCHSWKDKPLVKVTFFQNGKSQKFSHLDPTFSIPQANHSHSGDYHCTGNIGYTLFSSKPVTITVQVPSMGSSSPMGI

T3: human Fcγ RIIbc/CD32bc (human, UniProt P31994 46-217)
T3 construct: treated here as one molecule; also called hFcγRIIb
T3 sequence (looked up): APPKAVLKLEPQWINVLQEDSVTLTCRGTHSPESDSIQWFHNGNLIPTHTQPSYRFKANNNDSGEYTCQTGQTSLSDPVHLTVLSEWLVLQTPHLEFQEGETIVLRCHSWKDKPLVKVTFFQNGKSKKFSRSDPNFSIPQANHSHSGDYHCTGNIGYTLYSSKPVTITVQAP


Experiments:
[1] = target: T1, MISRII (AMHRII), immobilised on CM5 …; assay: SPR, MISRII immobilised on CM5 chip, IgG injected, Langmuir 1:1 fit (affinity and avidity)
Experimental: (§1) SPR analyses were performed on a Bia3000 or T200 apparatus at 25° C. in HBS-EP (GE Healthcare). For affinity measurements, MISRII was covalently immobilized (1000 RU) on CM5 sensor chip using EDC/NHS activation according to the manufacturer's instructions (GE Healthcare). Different concentrations (0.5-128 nM) of 12G4 or 3C23K were injected on immobilized receptor during 180 seconds. After 400 seconds of dissociation in running buffer, the sensor chip was regenerated using Gly-HCl pH 1.7. The KD values, taking into account affinity and avidity, were calculated using a Langmuir 1:1 fitting model (BiaEvaluation3.2, GE Healthcare). Antibody-FcγR measurements were performed by single-cycle titration at 100 μl/min on FcγR (Sigma) captured on anti-His (R&D Systems) covalently immobilized at 4000-5000 RU level. The gamma receptor was injected at 20 nM during 60 seconds and five increasing antibody concentrations were injected (injection time=60 seconds). […] Kinetic parameters were evaluated from the sensorgrams using a heterogeneous Ligand or steady-state fitting models on the T200 evaluation software 3.0 (GE healthcare). […]
To better define the binding characteristics, clone 3C23K was reformatted as an IgG1 antibody, produced in YB2/0 cells and analyzed by surface plasmon resonance (SPR). […]

human Fcγ RIIIa/CD16a [2] = target: T4, human Fcγ RIIIa/CD16a (human, UniProt P08637 17-208); assay: SPR, single-cycle titration, FcγR captured on anti-His; 3C23K from YB2/0, low fucose (33.0% fucosylated); lower end of the range 1-12 nM
T4 construct: Captured through anti-His antibody, so a His tag is implied but not described; also called hFcγRIIIa
Experimental: as §1
(§2) The percentages of fucosylated, galactosylated and bisecting GlcNAc isoforms were 33.0%, 57.2% and 1.8% for 3C23K and 94.6%, 54.4% and 2.0%, for 3C23K-CHO, respectively. The effect of these glycosylation differences on the binding to FcγRs was analyzed by SPR.

human Fcγ RIIIa/CD16a [3] = target: T4, human Fcγ RIIIa/CD16a; assay: SPR (Biacore); description's upper bound for hypofucosylated 3C23K (YB2/0)
human Fcγ RI/CD64 [4] = target: T5, human Fcγ RI/CD64 (human, UniProt P12314 16-288); assay: SPR T200, single-cycle titration, receptor captured on anti-His; two state reaction model
T5 construct: Captured through anti-His antibody, so a His tag is implied but not described; also called hFcγRI
Experimental: (§3) Anti-histidine antibodies (R&D Systems) were immobilized on a T200 apparatus at 25° C. in HBS-EP at 10 μl/min flow rate on a CM5 sensor chip using EDC/NHS activation, according to the manufacturer's instructions (GE Healthcare). They were covalently immobilized at the 6900RU level on the flowcell Fc2 and a control reference surface (flowcell Fc1) was prepared using the same chemical treatment but without anti-His antibodies.
(§4) All kinetic measurements in Fc1 and Fc2 were performed by single-cycle titration on a T200 apparatus at 25° C. in HBS-EP at 100 μl/min. Each human gamma receptor (R&D Systems) was captured on immobilized anti-His antibodies at 20 nM during 60 s. Five increasing concentrations of antibody were injected (injection time=120 s). After a dissociation step of 600 s in running buffer, sensor surfaces were regenerated using 5 μl of glycine-HCl pH1.7. All the sensorgrams were corrected by subtracting the low signal from the control reference surface and buffer blank injections. Kinetic parameters were evaluated from the sensorgrams using a heterogeneous ligand or two states models from the T200 evaluation software.
(§5) The results of the measure of the affinity constants (Kd) of the hypo-fucosylated anti-AMHRII 3C23K antibody for the human Fc receptors are depicted in Table 4 below.

human Fcγ RIIIb/hCD16b [5] = target: T6, human Fcγ RIIIb/hCD16b (human, UniProt O75015 17-200); assay: SPR T200, single-cycle titration, receptor captured on anti-His; heterogeneous ligand model (footnote *)
T6 construct: Captured through anti-His antibody, so a His tag is implied but not described; also called hFcγRIIIb
Experimental: as §3, §4, §5

human Fcγ RII/CD32a = target: T2, human Fcγ RII/CD32a; assay: as above
Experimental: as §3, §4, §5

human Fcγ RIIIb/hCD16b [6] = target: T6, human Fcγ RIIIb/hCD16b; assay: SPR, single-cycle titration, FcγR captured on anti-His; 3C23K from YB2/0, low fucose (33.0% fucosylated)
Experimental: as §1, §2

human Fcγ RIIIa/CD16a [7] = target: T4, human Fcγ RIIIa/CD16a; assay: SPR, single-cycle titration, FcγR captured on anti-His; 3C23K from YB2/0, low fucose (33.0% fucosylated); upper end of the range 1-12 nM
Experimental: as §1, §2

human Fcγ RIIbc/CD32bc = target: T3, human Fcγ RIIbc/CD32bc; assay: SPR, FcγR captured on anti-His
Experimental: as §1, §2

human Fcγ RI/CD64 [8] = target: T5, human Fcγ RI/CD64; assay: SPR, FcγR captured on anti-His
Experimental: as §1, §2

human Fcγ RIIIa/CD16a [9] = target: T4, human Fcγ RIIIa/CD16a; assay: SPR, single-cycle titration, FcγR captured on anti-His; 3C23K-HEK293, expressed in HEK293 (comparator, not fucose-reduced); lower end of the range 31-164 nM
Experimental: as §1, §2

human Fcγ RIIIa/CD16a [10] = target: T4, human Fcγ RIIIa/CD16a; assay: SPR, single-cycle titration, FcγR captured on anti-His; 3C23K-HEK293, expressed in HEK293 (comparator, not fucose-reduced); upper end of the range 31-164 nM
Experimental: as §1, §2

human Fcγ RIIIb/hCD16b [11] = target: T6, human Fcγ RIIIb/hCD16b; assay: SPR, single-cycle titration, FcγR captured on anti-His; 3C23K-HEK293, expressed in HEK293 (comparator, not fucose-reduced)
Experimental: as §1, §2

T6 sequence (O75015 17-200 limits assumed): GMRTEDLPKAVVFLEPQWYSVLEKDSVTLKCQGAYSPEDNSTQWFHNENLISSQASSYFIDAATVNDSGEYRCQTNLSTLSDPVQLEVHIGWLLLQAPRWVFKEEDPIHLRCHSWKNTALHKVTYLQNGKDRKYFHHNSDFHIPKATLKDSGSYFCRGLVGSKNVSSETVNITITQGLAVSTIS
T4 sequence (P08637 17-208 limits assumed): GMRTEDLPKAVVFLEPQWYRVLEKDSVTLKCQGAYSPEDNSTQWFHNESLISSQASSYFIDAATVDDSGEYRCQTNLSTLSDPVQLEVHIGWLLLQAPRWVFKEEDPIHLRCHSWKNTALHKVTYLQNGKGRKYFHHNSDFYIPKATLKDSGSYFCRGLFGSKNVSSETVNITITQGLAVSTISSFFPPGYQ
T5 sequence (P12314 16-288 limits assumed): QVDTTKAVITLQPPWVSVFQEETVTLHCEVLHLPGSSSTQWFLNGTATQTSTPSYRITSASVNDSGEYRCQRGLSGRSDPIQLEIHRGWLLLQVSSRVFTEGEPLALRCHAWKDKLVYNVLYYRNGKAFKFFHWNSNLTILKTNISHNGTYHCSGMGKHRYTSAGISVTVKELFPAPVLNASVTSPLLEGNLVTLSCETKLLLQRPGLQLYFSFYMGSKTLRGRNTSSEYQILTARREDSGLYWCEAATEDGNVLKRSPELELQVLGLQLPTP

| Kd [1] [nM] | Kd (human Fcγ RIIIa/CD16a [2]) [nM] | Kd (human Fcγ RIIIa/CD16a [3]) [nM] | Kd (human Fcγ RI/CD64 [4]) [nM] | Kd (human Fcγ RIIIb/hCD16b [5]) [nM] | Kd (human Fcγ RII/CD32a) [nM] | Kd (human Fcγ RIIIb/hCD16b [6]) [nM] | Kd (human Fcγ RIIIa/CD16a [7]) [nM] | binding result (human Fcγ RIIbc/CD32bc) | binding result (human Fcγ RI/CD64 [8]) | Kd (human Fcγ RIIIa/CD16a [9]) [nM] | Kd (human Fcγ RIIIa/CD16a [10]) [nM] | Kd (human Fcγ RIIIb/hCD16b [11]) [nM] | Binder |
| --- | --- | --- | --- | --- | --- | --- | --- | --- | --- | --- | --- | --- | --- |
| 0.79 | – | – | – | – | – | – | – | – | – | – | – | – | murine anti-MISRII monoclonal antibody 12G4 (antibody, V domains shown) VH: QVQLQQSGPELVKPGASVRMSCKASGYTFTSYHIHWVKQRPGQGLEWIGWIYPGDDSTKYNEKFKGKTTLTADKSSSTAYMLLSSLTSEDSAIYFCTRGDRFAYWGQGTLVTVSA VL: QIVLTQSPAIMSASLGEGITLTCSASSSVRYIHWYQQKSGTSPKLLIYSTSNLASGVPSRFSGSGSGTFHSLTISSVEAEDAADYYCLQWSSYPWTFGGGTKLEIK |
| 0.055 | ≥ 1 | < 50 | 0.2 to 3.3 | 49 | 120 | 86 | ≤ 12 | – | – | – | – | – | 3C23K humanised anti-AMHRII monoclonal antibody produced in YB2/0 cells (hypofucosylated, EMABling version) (antibody, human IgG1, kappa, N-glycan at ASN295 of the heavy chain, hypofucosylated (33.0% fucosylated isoforms for 3C23K from YB2/0), also called GM102; R18H2) heavy: not shown light: DIQMTQSPSTLSASVGDRVTITCRASSSVRYIAWYQQKPGKAPKLLTYPTSSLKSGVPSRFSGSGSGTEFTLTISSLQPDDFATYYCLQWSSYPWTFGGGTKVEIKRTVAAPSVFIFPPSDEQLKSGTASVVCLLNNFYPREAKVQWKVDNALQSGNSQESVTEQDSKDSTYSLSSTLTLSKADYEKHKVYACEVTHQGLSSPVTKSFNRGEC |
| – | – | – | – | – | – | – | – | binds | binds | ≥ 31 | ≤ 164 | 378 | 3C23K antibody expressed in HEK293 cells (antibody, human IgG1, kappa, It differs from m1 only in glycosylation; also called 3C23K-HEK293) heavy: not shown light: DIQMTQSPSTLSASVGDRVTITCRASSSVRYIAWYQQKPGKAPKLLTYPTSSLKSGVPSRFSGSGSGTEFTLTISSLQPDDFATYYCLQWSSYPWTFGGGTKVEIKRTVAAPSVFIFPPSDEQLKSGTASVVCLLNNFYPREAKVQWKVDNALQSGNSQESVTEQDSKDSTYSLSSTLTLSKADYEKHKVYACEVTHQGLSSPVTKSFNRGEC |
